Like-named read-outs stand apart in the source and are kept apart here.
Key:
[1] = target: human Type 1 mutCALR on Ba/F3 cells expressing MPL and Type 1 mutCALR (human); assay: cell-based or functional assay
[2] = target: Human Type 1 mutCALR (human); assay: cell-based or functional assay
[3] = target: human Type 1 mutCALR (52 bp deletion) (human)
[4] = target: human Type 1 mutCALR (52 bp deletion) (human); remark: listed apart in the source
[5] = target: human Type 1 mutCALR (52 bp deletion) (human); remark: listed apart in the source
[6] = target: human Type 1 mutCALR (52 bp deletion) (human); remark: listed apart in the source
[7] = target: human Type 1 mutCALR (52 bp deletion) (human); remark: listed apart in the source

Sequence of Human Type 1 mutCALR (human) (chain, as listed by the source limits assumed): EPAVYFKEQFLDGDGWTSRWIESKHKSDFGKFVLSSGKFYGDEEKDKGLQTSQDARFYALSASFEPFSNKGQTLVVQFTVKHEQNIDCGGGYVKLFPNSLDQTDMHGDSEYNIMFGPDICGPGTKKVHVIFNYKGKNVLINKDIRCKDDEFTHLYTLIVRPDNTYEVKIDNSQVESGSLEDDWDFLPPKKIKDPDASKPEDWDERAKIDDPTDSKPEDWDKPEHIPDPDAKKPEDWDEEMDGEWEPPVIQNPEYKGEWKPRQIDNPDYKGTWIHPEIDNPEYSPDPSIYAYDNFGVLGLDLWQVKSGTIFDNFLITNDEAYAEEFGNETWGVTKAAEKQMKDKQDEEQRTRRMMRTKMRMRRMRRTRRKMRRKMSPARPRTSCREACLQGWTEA
Sequence of human Type 1 mutCALR (52 bp deletion) (human) (chain, as listed by the source limits assumed, stated change not applied): as the sequence (chain, as listed by the source limits assumed) above
Sequence of human Type 1 mutCALR on Ba/F3 cells expressing MPL and Type 1 mutCALR (human) (chain, as listed by the source limits assumed): as above

B1: anti-mutCALR antibody clone 54 (antibody, human IgG1, kappa, V domains shown)
VH: QVTLKESGPGILKPSQTLSLTCSFSGFSLSTSGMGVGWIRQPSGKGLEWLAHIWWDDDKYYNPYLKNQVTISKDTSRNQVFLKITSVDTADTATYYCARSAYGSTYGYWGQGTTLTVSS
VL: DIVLTQSPASLAVSLGQRATISCKASQSVDYDGDSFMNWYQQKPGQPPKLLIYTASILESGIPARFSGSGSGTDFTLNIHPVEEEDAATYYCQQSNEDPWTFGGGTKLEIKR
B1 was tested, and the IC50, inhibition of pSTAT5 [1] was 12.7 µg/mL.

B2: AB2: anti-mutCALR antibody including VH and VL regions of antibody B3 from WO2020175689 fused to human constant regions (antibody, human IgG1, kappa, V domains shown)
VH: QVQLQQSGAELVKPGSSVKISCKASGYTFTRNFIHWIKQQPGNGLEWIGWIFPGDGDTEYNQKFNGKATLTADKSSSTAYMQLSSLTSEDSAVYFCARGNYNYEYFDYWGQGVMVTVSS
VL: DIQMTQSPASLSASLGETVSIECLASEDIYSYLAWYQQKPGKSPQLLIFAANRLQDGVPSRFSGSGSGTQFSLKISGMQPEDEGDYFCLQGSKFPYTFGPGTKLELNR
B2 was tested, and the IC50 of inhibition of cell proliferation (BaF3 cells expressing MPL/mutCALR Type 1) [2] was over 60000 ng/mL.

B3: anti-mutCALR antibody clone 68 (antibody, human IgG1, lambda, N297A, V domains shown)
VH: EVQLVQSGAEVKKPGASVKVSCKVSGYTLTELSMQWVRQAPGKGLEWMGGFDPDEGETMYAEKFQGRLTVTEDTSTDTVYMELRSLTSEDTALYFCATSPGYDFFDYWGQGTLVTVSS
VL: SYVLTQPPSVSVAPGKTARITCTGTSSDVGGYNYVSWYQQKPGQAPVLVVYEVSNRPSGIPERFSGSNSGNTATLTISRVEAGDEADYYCQVWDSSNDLLIFGGGTKLTVLG
For B3, the IC50 of inhibition of cell proliferation (Ba/F3 cells with MPL and mutCALR Type 1) [2] was 0.9 ng/mL and the IC50 of inhibition of MPL-LgBiT/MPL-smBiT dimerization (NanoBiT luminescence, percent of isotype) in transfected HAP1 JAK2-knockout cells [3] was 3.27 ng/mL.

B4: anti-mutCALR antibody clone 65 (antibody, human IgG1, lambda, N297A, V domains shown)
VH: EVQLVQSGAEVKKPGASVKVSCKVSGYTLTELSMQWVRQAPGKGLEWMGGFDPDDGETMYAEKFQGRLTVTEDTSTDTVYMELRSLTSEDTALYFCATSPGYDFFDYWGQGTLVTVSS
VL: SYVLTQPPSVSVAPGKTARITCTGTSSDVGGYNYVSWYQQKPGQAPVLVVYEVSNRPSGIPERFSGSNSGNTATLTISRVEAGDEADYYCQVWDSSNDLLIFGGGTKLTVLG
B4 was tested, and the IC50 of inhibition of MPL-LgBiT/MPL-smBiT dimerization (NanoBiT luminescence, percent of isotype) in transfected HAP1 JAK2-knockout cells [4] was 3.27 ng/mL and the IC50 of inhibition of cell proliferation (Ba/F3 cells with MPL and mutCALR Type 1) [2] was 0.3 ng/mL.

B5: anti-mutCALR antibody clone 128 (antibody, human IgG1, lambda, N297A, V domains shown)
VH: EVQLVQSGAEVKKPGASVKVSCKVSGYTLTELSMQWVRQAPGKGLEWMGGFDPDDAETMYAEKFQGRLTVTEDTSTDTVYMELRSLTSEDTALYFCATSPGYDFFDYWGQGTLVTVSS
VL: SYELTQPPSVSVAPGKTARITCGGDNIGSKSVHWYQQKPGQAPVLVVYDDSDRPSGIPERFSGSNSGNTATLTINRVEAGDEADYYCQVWDSSNDLLIFGGGTKLTVLG
B5 gave an IC50 of inhibition of cell proliferation (Ba/F3 cells with MPL and mutCALR Type 1) [2] of 9.8 ng/mL.

B6: anti-mutCALR antibody clone 14 (antibody, human IgG1, lambda, V domains shown)
VH: EVQLVQSGAEVKKPGASVKVSCKVSGYTLTELSMQWVRQAPGKGLEWMGGFDPDDGETMYAEKFQGRLAVTEDTSTDTVYMELRSLTSEDTALYFCATSPGYDFFDYWGQGTLVTVSS
VL: SYVLTQPPSVSVAPGKTARITCGGYNIGSKFVHWYRQRPGQAPVLVVYDDRDRPSGIPERFSGSNSGNTATLTISRVEAGDEADYYCQVWDSSNDLLIFGGGTKLTVLG
For B6, the IC50, inhibition of pSTAT5 [1] was 0.06 µg/mL.

B7: anti-mutCALR antibody clone 184 (antibody, human IgG1, lambda, N297A, V domains shown)
VH: EVQLVQSGAEVKKPGASVKVSCKVSGYTLTELSMQWVRQAPGKGLEWMGGFDPDDAETMYAEKFQGRLTVTEDTSTDTVYMELRSLTSEDTALYFCATSPGYDFFDYWGQGTLVTVSS
VL: SYVLTQPPSVSVAPGQTARITCGGSDIGDEIVHWYQQKPGQAPVLVVYDDSDRPSGIPERFSGSNSGNTATLTISRVEAGDEADYYCQVWDSSSDHLIFGGGTKLTVLG
For B7, the IC50 of inhibition of cell proliferation (Ba/F3 cells with MPL and mutCALR Type 1) [2] was 1.9 ng/mL and the IC50 of inhibition of MPL-LgBiT/MPL-smBiT dimerization (NanoBiT luminescence, percent of isotype) in transfected HAP1 JAK2-knockout cells [5] was 3.77 ng/mL.

B8: anti-mutCALR antibody clone 74 (antibody, human IgG1, lambda, N297A, V domains shown)
VH: EVQLVQSGAEVKKPGASVKVSCKVSGYTLTELSMQWVRQAPGKGLEWMGGFDPDDAETMYAEKFQGRLTVTEDTSTDTVYMELSSLRSEDTAVYFCATSPGYDFFDYWGQGTLVTVSS
VL: SYVLTQPPSVSVAPGKTARITCTGTSSDVGGYNYVSWYQQKPGQAPVLVVYEVSNRPSGIPERFSGSNSGNTATLTISRVEAGDEADYYCQVWDSSNDLLIFGGGTKLTVLG
B8 gave an IC50 of inhibition of cell proliferation (Ba/F3 cells with MPL and mutCALR Type 1) [2] of 1 ng/mL, a Log IC50 of inhibition of cell proliferation, antibody + ruxolitinib (Ba/F3-TPOR/mutCALR type 1 cells) (Log IC50 (µg/mL)) [2] of -1.46 and a Log IC50 of inhibition of cell proliferation, antibody alone (Ba/F3-TPOR/mutCALR type 1 cells) (Log IC50 (µg/mL)) [2] of -0.438. It also gave an IC50 of inhibition of MPL-LgBiT/MPL-smBiT dimerization (NanoBiT luminescence, percent of isotype) in transfected HAP1 JAK2-knockout cells [6] of 8.89 ng/mL.

B9: anti-mutCALR antibody clone 188 (antibody, human IgG1, lambda, N297A, V domains shown)
VH: EVQLVQSGAEVKKPGASVKVSCKVSGYTLTELSMQWVRQAPGKGLEWMGGFDPDEGETMYAEKFQGRLTVTEDTSTDTVYMELSSLRSEDTAVYFCATSPGYDFFDYWGQGTLVTVSS
VL: SYVLTQPPSVSVAPGQTARITCGGSDIGDEIVHWYQQKPGQAPVLVVYDDSDRPSGIPERFSGSNSGNTATLTISRVEAGDEADYYCQVWDSSSDHLIFGGGTKLTVLG
B9 showed an IC50 of inhibition of MPL-LgBiT/MPL-smBiT dimerization (NanoBiT luminescence, percent of isotype) in transfected HAP1 JAK2-knockout cells [7] of 2.48 ng/mL and an IC50 of inhibition of cell proliferation (Ba/F3 cells with MPL and mutCALR Type 1) [2] of 4.6 ng/mL.

B10: AB3: anti-mutCALR antibody including the BJ095 VH region and the BJ097 VL region from WO2019178362 fused to human constant regions (antibody, human IgG1, kappa, V domains shown)
VH: QVQLVQSGAEVKKPGASVKVSCKASGYSFTGYYIHWVRQAPGQGLEWIGYISAYNGASSYNQKFKGRATFTVDTSISTAYMELSRLRSDDTAVYYCASSMDYWGQGTLVTVSS
VL: DVVMTQSPLSLPVTLGQPASISCKSSQSLLDSDGKTYLNWLQQRPGQSPKRLIYLVSKLDSGVPDRFSGSGSGTDFTLKISRVEAEDVGVYHCWQGTHFPYTFGQGTKLIEKR
B10 gave an IC50 of inhibition of cell proliferation (BaF3 cells expressing MPL/mutCALR Type 1) [2] of over 60000 ng/mL.

From patent US20230272055A1, “ANTI-MUTANT CALRETICULIN (CALR) ANTIBODIES AND USES THEREOF” (Incyte Corporation, priority 2021, published 2023)
